Consider 21 sequences from the DeepSol protein solubility set.

The series is described as follows: soluble on expression in E. coli; label from the status in PepcDB or PDB records.
Consider “MKKVLFLLFLVFSFGVYSATFSDSDKKEILKQFSEFQKAVKKKDAAAVSRYISYPLKEGNTKEVIWKNSSELAKDLKDKETYTFYSINELKIDSNANKIINVEERLLEKNGEFGDEFLSVTGRFLDTDDVEGTIYTGIDKPHFVVAVSVYDDMFEGGTYYLFSFENKKLELVSIFRLP”, for which the “soluble on expression in E. coli” value was “not soluble”.
In the case of “MKKVLLVNGPNLNRLGVREVNVYGKGTLATLEADMKQEAEAMGVELECFQSNHEGAIIDRIHEAEDIYEGIILNPGAFTHYSYAIRDAIASISIPVIEVHISNIHQRESFRHESVTAAVCAGQIVGFGFYGYKLALFALMEKLREA”, the “soluble on expression in E. coli” value is reported as “not soluble”.
In the case of “MKKYQQLAEQLREQIASGIWQPGDRLPSLRDQVALSGMSFMTVSHAYQLLESQGYIIARPQSGYYVAPQAIKMPKAPVIPVTRDEAVDINTYIFDMLQASRDPSVVPFASAFPDPRLFPLQQLNRSLAQVSKTATAMSVIENLPPGNAELRQAIARRYALQGITISPDEIVITAGALEALNLSLQAVTEPGDWVIVENPCFYGALQALERLRLKALSVATDVKEGIDLQALELALQEYPVKACWLMTNSQNPLGFTLTPQKKAQLVALLNQYNVTLIEDDVYSELYFGREKPLPAKAWDRHDGVLHCSSFSKCLVPGFRIGWVAAGKHARKIQRLQLMSTLSTSSPMQLALVDYLSTRRYDAHLRRLRRQLAERKQRAWQALLRYLPAEVKIHHNDSGYFLWLELPEPLDAGELSLAALTHHISIAPGKMFSTGENWSRFFRFNTAWQWGEREEQAVKQLGKLIQERL”, the “soluble on expression in E. coli” value is “not soluble”.
For “MKKYQQLFKQIQETIQNETYAVGDFLPSEHDLMEQYQVSRDTVRKALSLLQEEGLIKKIRGQGSQVVKEETVNFPVSNLTSYQELVKELGLRSKTNVVSLDKIIIDKKSSLITGFPEFRMVWKVVRQRVVDDLVSVLDTDYLDMELIPNLTRQIAEQSIYSYIENGLKLLIDYAQKEITIDHSSDRDKILMDIGKDPYVVSIKSKVYLQDGRQFQFTESRHKLEKFRFVDFAKRKK”, the “soluble on expression in E. coli” value was “not soluble”.
As for “MKLARFLAKGRVHQGVYREGLLLDEAGEAHRPEDVTWLLPFTPGKILGVALNYADHAEELGLSRPEEPALFWKPNTSLLPHKGVVLYPKGARFVHYEVELAVVVGRPMKRVRAKDALDYVLGYTIANDLVARDYVTNTFRPPIRAKGRDTFLPLGPFLVVEEVEDPQDLWLRAYVNGELRQEGHTSRMLYSVAELLEFISEFMTLEPYDVLLTGTPKGISQVRPGDVMRLEIEGLGALENPIEEEP”, the “soluble on expression in E. coli” value is reported as “soluble”.
With “MKLDAKSTIETGKAILGIELGSTRIKAVLIDQENKPIAQGSHTWENQLVNGLWTYSIDAIWSGLQDCYADLRSNVKKLYDTEIETLAAIGVSAMMHGYMPFNEKEEILVPFRTWRNTNTGRAAAELSELFVYNIPLRWSISHLYQAILDNEAHVKDIKFLTTLAGYVHWQITGEKVLGIGDASGMLPIDPTTNNYSAEMVAKFNNLIASKEYSWKLEDILPKVLSAGENAGVLTPEGCKKLDASGHLKAGIPVCPPEGDAGTGMVATNAVKQRTGNVSAGTSSFSMIVLEKELSKPYEMIDMVTTPDGSLVAMVHCNNCTSDLNAWVNLFKEYQELLGIPVDMDELYGKLYNIALTGDTDCGGLLSYNYISGEPVTGLAEGRPLFVRSANDKFNLANFMRAHLYASVGVLKIGNDILFNEEKIKVDRITGHGGLFRTKGVGQRVLAAAINSPISVMETAGEGGAWGIALLGSYLVNNKKGQSLADFLDESVFVSDAGVEVSPTPEDVAGFNTYIESYKAGLPIEEAAVKFKLEHHHHHH”, the “soluble on expression in E. coli” value was “soluble”.
Consider “MKLESPLGSDLARLVRIWRALIDHRLKPLELTQTHWVTLHNIHQLPPDQSQIQLAKAIGIEQPSLVRTLDQLEEKGLISRQTCASDRRAKRIKLTEKAEPLISEMEAVINKTRAEILHGISAEELEQLITLIAKLEHNIIELQAKG”, for which the “soluble on expression in E. coli” value is listed as “not soluble”.
Consider “MKLFQVLIISMICLALVEERRDRSNRRRNQSEGGSRSRSESWLGSSGSSRSRSSGRSAASAGSSQAASPAGASAIGSSQAGSSAGSPAAAAAGGSGGADAGAILNGVGGLMRSVGGLAGAAGGAAGGAAGAPAGAPAGASAGASAAPAAQDAGTVLGGVSGVLTGVSGIVSAAGAAKA”, for which the “soluble on expression in E. coli” value was “not soluble”.
With “MKLHLEIWRQAGPNSEGHFEPIDVNDAVPQMSVLELLDHVNTGLIEEGKEPFVFASDCREGICGTCGLLVNGRPHGLDKNKPSCQQRLDHVPDGSTLKIEPLRSAAYPVVKDLLVDRSALDRVLEKGGFVSINAGTAPDADTLHQNHESAELALDH”, the “soluble on expression in E. coli” value is reported as “not soluble”.
To “MKLIFILSIIFLSSLSVAQSPISCAFCMAGLAQINQQVISSPDMEAQMGIQASQGCDQIPVKQTRETCRGSLNTNFNIFYSNFTGQANNSPTQMCINMGMC” belongs “not soluble”.
In the case of “MKLKAILIVALSVVLFLVGYREMKPISDEQKMESMIKALEKNDAKVEKWSWLARETKTISNIHTFQKLLNDVKEKANIQKWEVEQSPDGYKATSYKKLSSYEERVVVTWSKENTKENTFIIFEVSGAKWDPKYVQNMNKIFSEKPIIYTCVQGVLNDKIEGVLQNKTNQVLKDLSARAIEQVEERAFVSVSAYNKKWDDALSTNREKINVQIAIRSTDNKDTIVVGTPIITSEY”, the “soluble on expression in E. coli” value is given as “not soluble”.
Next, “MKLKHLDKLLAHCHRRRYTAKSTIIYAGDRCETLFFIIKGSVTILIEDDDGREMIIGYLNSGDFFGELGLFEKEGSEQERSAWVRAKVECEVAEISYAKFRELSQQDSEILYTLGSQMADRLRKTTRKVGDLAFLDVTGRVARTLLDLCQQPDAMTHPDGMQIKITRQEIGRIVGCSREMVGRVLKSLEEQGLVHVKGKTMVVFGTR”: “soluble”; “MKLNCCGVTQIADRVERLAHTHGKTWHTWHTDQDKTLPLGVPQLMMGFTADGQADPAMQQQRNQRLGIVKSAIKAQRADIQIPKADPGADGWQHGKTIQINDPTGHLHGPATSPTPQNTNSRSTQLEHHHHHH”: “not soluble”.
For the sequence “MKLNLKNPLIFFDLETTGVDLVRDRIVEISILKVMPDGSEECKTRRINPERPIPPESTAIHGIRDEDVKDCPPFRSVAKSLAQWIEGCDLAGFNSTRFDVPMLVEEFLRAGVDIDLRHRKLIDVQTIFHKMEPRTLEAATRFYCNRTLENAHSAEADTRATYDVFKAQLDRYEGTLENDMAFLADFSRQSRNVDFAGRLVYDDNDNVIINFGKYRGRKALDVLRTDSGYYGWIMDADFTLNTKQEFTRLRMSLNNPETK”, the “soluble on expression in E. coli” value is reported as “soluble”.
Consider “MKLPARVFFTLGSRLPCGLAPRRFFSYGTKILYQNTEALQSKFFSPLQKAMLPPNSFQGKVAFITGGGTGLGKGMTTLLSSLGAQCVIASRKMDVLKATAEQISSQTGNKVHAIQCDVRDPDMVQNTVSELIKVAGHPNIVINNAAGNFISPTERLSPNAWKTITDIVLNGTAFVTLEIGKQLIKAQKGAAFLSITTIYAETGSGFVVPSASAKAGVEAMSKSLAAEWGKYGMRFNVIQPGPIKTKGAFSRLDPTGTFEKEMIGRIPCGRLGTVEELANLAAFLCSDYASWINGAVIKFDGGEEVLISGEFNDLRKVTKEQWDTIEELIRKTKGS”, for which the “soluble on expression in E. coli” value is given as “soluble”.
With “MKLSGGVEWALHCCVVLSQAESPVPTARLAELHGVSKTYLAKHLQSLARAGLVHPTEGRDGGYVLTRAPEAITVLDVVQAVDGTEPAFRCTEIRRQGVLAAPPEQCRSACGIAKVMAGAEQAWRASLSSVTIADLGATIDLTVLKHILATSTT”, the “soluble on expression in E. coli” value is recorded as “not soluble”.
In the case of “MKLSLVFLLFVAFAKSADTAPVDFNKIFVTFVEELMDAINQLILEQMGAIRPSTTPLQSIPPITATDAPTTADTTAEPTKAHETTVAQEATSEGAETHETTVGQDTTVRSGESQETTVSQGTTVSQENTVSQETTVSQDTTVSQETTVSQDTTVSQDTTVSQESTVSQETTVSQDTTVSQETSVSHETNVSPDTTVSQESTVSQDTTVSQETTLSQETTVSQETTVSQDTTVSQETTASQDTTVSQDTTVSQDTTVVPQETTVEATKASEATEENGTTAVTPGESDPCDTTEAPTGGSTVGESEPCDTTEASEPTGHTDQAETVTDPASQATASATIIGGVDQTGSTNLEATTEQICKHPTKDSEEEKTDENKDEKTTRAGTNVHRPEREDILK”, the “soluble on expression in E. coli” value is “not soluble”.
With “MKLSPVSAAVLSVLAAGFAHAETEPSHYEEVVVTANRIEQPLSEVAGSVAVLEGETLEKQGKTELYDALNQEPGVSVTGGAGRPQNITIRGMTGNRIAIVRDGIQSADGYGAADINDKYGRNTFSLSNVKQIQVVKGASSTLYGSGAIGGVVIIESKAPEDYLYHRDYYVDAALTYSGISNRYQGNHALAMRHGDGEALLTIDYWQGEETRNFNQDLYNREVDGYNLGFSHHYWLNDALRLKTHLEYFDDYAKRREGTSSIQKDDKWDLVSFYEYQRSQTRLASVGADYTANLSWMDTLEGKFYWRSTENITQTNRLMANDRSGAGILSYRRELRDEGFNDEALGATLNAQKEWQQGEWLHQFAYGMSVDGHDYQRPKSIRRMESSGDDLQADEPFAPAREYRFGVYGQDNLLLGDWTLAAGLRFDAQKLSPKNTDRIHGYKVVTMGSSEWSPSASISYQWHPEWNTYLSYNHGFRAPSYDKAYGASDHSFVPLTPFIIKPNNKLRAETSDSFELGSKYDNGQTQFYVAVFYSIFDNFIDVKQVGYDNATGSVIQQYQNIAGVKTYGAEMSVMHRLDDRWSVENKLGYVDGKDGENQYVRTLTPLEGSVQLNYQRERWDAYSRLNWASAMSRVPTCTTEQGKETECATTTGWVSWDIGLNYQWNAQLSASFNVVNLLDREYTRYQDVAGVTPSDTLYSTEPGRYFTVHAKYVF”, the “soluble on expression in E. coli” value is listed as “not soluble”.
“MKLSQMQAGERGIILALDGLSDTVRKKLMVMGVLPNTEVVLIRRAPMGDPLQVEVRGVSIALRENIAANIDVERAQ”: the “soluble on expression in E. coli” value is “not soluble”.
With “MKLSTKLCWCGIKGRLRPQKQQQLHNTNLQMTELKKQKTAEQKTRPQNVGIKGIQIYIPTQCVNQSELEKFDGVSQGKYTIGLGQTNMSFVNDREDIYSMSLTVLSKLIKSYNIDTNKIGRLEVGTETLIDKSKSVKSVLMQLFGENTDVEGIDTLNACYGGTNALFNSLNWIESNAWDGRDAIVVCGDIAIYDKGAARPTGGAGTVAMWIGPDAPIVFDSVRASYMEHAYDFYKPDFTSEYPYVDGHFSLTCYVKALDQVYKSYSKKAISKGLVSDPAGSDALNVLKYFDYNVFHVPTCKLVTKSYGRLLYNDFRANPQLFPEVDAELATRDYDESLTDKNIEKTFVNVAKPFHKERVAQSLIVPTNTGNMYTASVYAAFASLLNYVGSDDLQGKRVGLFSYGSGLAASLYSCKIVGDVQHIIKELDITNKLAKRITETPKDYEAAIELRENAHLKKNFKPQGSIEHLQSGVYYLTNIDDKFRRSYDVKK”, the “soluble on expression in E. coli” value is “soluble”.
For the sequence “MKLTGSKILIECLKEQGVDTIFGFPGGAVLNIYDELYRSQNEIRHILTSHEQGAAHAADGYARATGKVGVCLATSGPGATNLVTGIATAYMDSVPMVAITGQVATPLLGKDSFQEVDITGITMPITKHNFIVKDVNKLADIVRRAFYIAKEGRPGPVLIDICKDVTAAYAEYEPKSPQELPEVPVRVDEKCIDEAAEAINKAERPVILAGGGVSIAGANKELFEFATNAQIPVTTTLMGMGAFPGTHELFMGMIGMHGTKTTNMAVSESDLFIAIGARFSDRVISNVQRFAPKASIMHIDIDPAEIGKNINVQYALEGNIKKILQLLNERVKKKECTDWVRKINEWKELYPLKYPQDDKLHPQYIIERMYELTKGEAIITTEVGQHQMWAAQFYKYTSPRQFLSSGGLGTMGYGLGACIGARIGRPDKKVINVAGDGSFRMNCNELATAVEYKLPIIVAIFNNHALGMVRQWQQLFYGGRYSSTSLDRCTDFKALAEAYGAIGINVTAKEEVDEALNRALASEDTPVVINFEIDKDEMVFPIVPPGAPLSELIEE”, the “soluble on expression in E. coli” value was “not soluble”.
